Target: T1, Human C-reactive protein, pentameric (pCRP) (human), P02741
T1 chain: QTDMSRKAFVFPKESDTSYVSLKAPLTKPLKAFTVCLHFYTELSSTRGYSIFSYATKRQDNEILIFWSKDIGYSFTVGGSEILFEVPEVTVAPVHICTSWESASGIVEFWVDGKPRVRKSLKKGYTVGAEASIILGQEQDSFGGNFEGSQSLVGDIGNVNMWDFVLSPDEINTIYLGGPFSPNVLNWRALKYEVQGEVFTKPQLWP
Experiment: crystal structure; pCRP at 8 mg/ml in 20 mM Tris, 140 mM NaCl, 2 mM CaCl2, co-crystallised with C10M (1:3 molar ratio pCRP:C10M); hanging drop at 20°C; well buffer 100 mM Tris pH 9, 10% PEG 4000, 50 mM LiCl, 200 mM MgCl2; oligomer seen: pentamer
Conditions: remark: other sources report otherwise

stoichiometry N: 5
B1: Human C-reactive protein, pentameric (pCRP), P02741 19-224 (natural protein)
chain: QTDMSRKAFVFPKESDTSYVSLKAPLTKPLKAFTVCLHFYTELSSTRGYSIFSYATKRQDNEILIFWSKDIGYSFTVGGSEILFEVPEVTVAPVHICTSWESASGIVEFWVDGKPRVRKSLKKGYTVGAEASIILGQEQDSFGGNFEGSQSLVGDIGNVNMWDFVLSPDEINTIYLGGPFSPNVLNWRALKYEVQGEVFTKPQLWP

Reference: PMC9832874
